# Experimental data taken from patent US20250154264A1 (GENOVAC ANTIBODY DISCOVERY, published 2025).
# T1: human ALK5 on transiently transfected cells (human, UniProt P36897 34-503)
# T1 construct: whole, on cells; also called ALK5 of human
# T1 sequence (looked up): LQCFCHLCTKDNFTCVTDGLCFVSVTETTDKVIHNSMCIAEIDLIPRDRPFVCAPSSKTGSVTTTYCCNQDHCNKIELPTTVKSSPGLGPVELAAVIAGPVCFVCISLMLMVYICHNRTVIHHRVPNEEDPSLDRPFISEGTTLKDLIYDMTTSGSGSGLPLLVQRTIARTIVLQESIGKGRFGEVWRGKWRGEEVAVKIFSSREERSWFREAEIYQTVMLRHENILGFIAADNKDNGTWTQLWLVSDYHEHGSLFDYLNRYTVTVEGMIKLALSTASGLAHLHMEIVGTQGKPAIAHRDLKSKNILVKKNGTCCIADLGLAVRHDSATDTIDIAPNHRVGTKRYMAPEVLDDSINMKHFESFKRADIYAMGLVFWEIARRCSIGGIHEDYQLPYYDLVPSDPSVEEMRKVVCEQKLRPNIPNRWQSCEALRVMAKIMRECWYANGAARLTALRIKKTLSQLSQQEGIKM
# T2: murine ALK1, N-terminally tagged, on transiently transfected cells (mouse, UniProt Q61288 23-502)
# T2 construct: whole, on cells; also called mouse ALK1; murine orthologue; not shown: N-terminal tag used for the expression control
# T2 sequence (looked up): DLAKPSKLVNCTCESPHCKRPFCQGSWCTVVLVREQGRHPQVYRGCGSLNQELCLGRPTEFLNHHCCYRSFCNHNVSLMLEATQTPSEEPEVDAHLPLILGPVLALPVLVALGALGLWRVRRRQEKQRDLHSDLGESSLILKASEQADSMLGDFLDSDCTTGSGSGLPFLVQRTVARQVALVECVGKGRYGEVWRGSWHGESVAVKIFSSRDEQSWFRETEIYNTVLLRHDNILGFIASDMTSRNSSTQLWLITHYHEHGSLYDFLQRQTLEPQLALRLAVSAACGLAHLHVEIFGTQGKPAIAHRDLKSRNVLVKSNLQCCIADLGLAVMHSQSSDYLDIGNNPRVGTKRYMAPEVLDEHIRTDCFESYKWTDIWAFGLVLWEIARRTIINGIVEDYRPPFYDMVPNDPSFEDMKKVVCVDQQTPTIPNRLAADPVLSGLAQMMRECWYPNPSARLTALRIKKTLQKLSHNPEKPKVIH
# B1: BVO-B-1H7-E3 (antibody, V domains shown)
# VH: QLQLQESGPGLVKPSETLSLTCTVSGGSISSRSYYWGWIRQPPGKGLEWIGNIYYSGSAFYNPSLKSRVTISVDTSKNQFSLKLSSVTAADTAVYYCARWDNWDVGAFDIWGQGTMVTVSS
# VL: QSALTQPPSASGSPGQSVTISCTGTSSDVGGYNYVSWYQQHPGKAPKLMIYEVSKRPSGVPDRFSGSKSGNTASLTVSGLQAEDEADYYCTSFAGSNNWVFGGGTKLTVL
# notes: Tested as OmniRat hybridoma supernatant and detected with goat anti-rat secondary antibody
# B2: BVO-A-9F7-A10 (antibody, V domains shown)
# VH: QVQLQQWGAGLLKPSETLSLTCAVYGGSFSSSYWNWIRQPPGKGLEWIGEVNHSGSTNYNPSLKSRVTISLDTSKNQFSLKLSSVTAADTAVYYCARSPRSGRIVGAVFDYWGQGTLVTVSS
# VL: SYVLTQPPSVSVAPGQTARITCGGNNIGPKSVHWYQQKPGQAPVLVVYDDSDRPSGIPERFSGSNSGNTATLTISRVEAGDEADYYCQVWDSSNDHVVFGGGTKLTVL
# notes: Tested as OmniRat hybridoma supernatant and detected with goat anti-rat secondary antibody; also called BVO-A-9E7-A10
# Columns and labels:
# [1] = biological target: T1, human ALK5 on transiently transfected …; experiment: flow cytometry, hybridoma supernatant on transiently transfected cells (Example 3)
# Method: (§1) Flow cytometry was used to measure fluorescence intensity produced by fluorescent-labeled secondary antibodies detecting primary anti-ALK1 antibodies that bind to specific cell-associated ALK5 molecules. More precisely hybridoma supernatants containing primary antibodies were tested for binding to transiently transfected cells expressing ALK5 of human and mouse by flow cytometry. The signals were generated by use of secondary, PE-labelled goat anti-rat antibodies. In addition to testing the supernatants on non-transfected cells, ALK5 of human and mouse-transfected cells were incubated only with the secondary antibody (without supernatants) as a negative control.
# [2] = biological target: T3, human ALK1 (Activin A receptor like type 1), N-terminally tagged, on transiently transfected cells (human, UniProt P37023 22-503); experiment: flow cytometry, hybridoma supernatant on transiently transfected cells, PE goat anti-rat secondary
# T3 construct: also called ALK1 of human; ACVRL1; not shown: N-terminal tag used for the expression control
# Method: as §1, with “Various isolated antibodies were assessed for the ability to bind ALK1 from mouse (murine), human, and cyno monkey. Flow” for “Flow”, “ALK1” for “ALK5”, “human, cyno monkey” for “human”
# [3] = biological target: T2, murine ALK1, N-terminally tagged, on …; experiment: as above
# Method: as §1, with “Various isolated antibodies were assessed for the ability to bind ALK1 from mouse (murine), human, and cyno monkey. Flow” for “Flow”, “ALK1” for “ALK5”, “human, cyno monkey” for “human”
# T3 sequence (P37023 22-503): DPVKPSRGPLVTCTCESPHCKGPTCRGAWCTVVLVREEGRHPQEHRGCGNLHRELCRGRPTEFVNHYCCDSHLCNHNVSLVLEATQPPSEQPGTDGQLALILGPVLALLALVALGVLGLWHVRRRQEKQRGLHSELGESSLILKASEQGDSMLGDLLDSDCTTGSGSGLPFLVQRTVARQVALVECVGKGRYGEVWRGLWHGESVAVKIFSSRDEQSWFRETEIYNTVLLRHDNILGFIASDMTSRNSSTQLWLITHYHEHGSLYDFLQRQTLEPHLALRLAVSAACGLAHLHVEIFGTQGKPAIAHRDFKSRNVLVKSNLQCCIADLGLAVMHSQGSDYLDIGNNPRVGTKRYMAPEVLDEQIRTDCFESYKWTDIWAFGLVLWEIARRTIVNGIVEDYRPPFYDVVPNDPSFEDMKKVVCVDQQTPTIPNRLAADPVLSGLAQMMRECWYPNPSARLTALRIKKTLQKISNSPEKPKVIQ
Binder,binding result [1],binding result [2],binding result [3]
B1,no binding,binds,binds
B2,no binding,binds,binds
